The target of assay [1] is T1, human Trop-2 on the surface of cells (CHO/Trop-2 cells; BxPC-3 cells; NCI-N87 cells) (human, UniProt P09758 27-323).
T1 construct: whole, on cells; One molecule for all cell lines; the cell line is named under assay or readout; also called Trop-2 on the surface of CHO cells; recombinant human Trop-2 protein on the surface of CHO cells
T1 sequence (looked up): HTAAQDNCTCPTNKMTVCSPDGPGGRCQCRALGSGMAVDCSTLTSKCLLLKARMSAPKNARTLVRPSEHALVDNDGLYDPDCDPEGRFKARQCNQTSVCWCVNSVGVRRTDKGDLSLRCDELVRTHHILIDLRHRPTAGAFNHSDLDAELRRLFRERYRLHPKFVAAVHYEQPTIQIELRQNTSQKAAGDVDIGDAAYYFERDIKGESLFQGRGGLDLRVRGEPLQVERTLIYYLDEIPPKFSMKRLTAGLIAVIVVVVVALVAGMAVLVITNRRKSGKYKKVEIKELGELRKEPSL
Nature of the assay: FACS, CHO/Trop-2 cells. On the procedure: Suspensions of CHO cells recombinantly expressing human Trop-2 (CHO/Trop-2 cells) were incubated with chimeric antibodies ch3-11, ch4-3, ch17-1, ch11-4, and ch23-12 (dilutions at concentrations of 30 μg/ml and 10 μg/ml, and serial dilutions of 9 concentrations obtained through 3-fold serially diluting a solution with an initial concentration of 5 μg/ml, 11 concentrations in total) for 30 min at 37° C. Controls as follows were set: (1) Positive Control (PC): control antibody Sacituzumab; (2) Negative Control (NC): IgG1 isotype control antibody NC-IgG1. The cells were washed 3 times with PBS, and 1:100 dilution of goat anti-human IgG-FITC (Cat.: F9512, Sigma) was added into the cell which then were incubated for 30 min. Then the cells were washed 3 times with PBS again, and the Mean Fluorescence Intensity (MFI) of the cells was measured by a flow cytometer (model B49007AD, SNAW31211, BECKMAN COULTER) to detect binding ability of the chimeric antibodies to human Trop-2 on the surface of CHO cells.

For assay [2], the target named is T1, human Trop-2 on the surface of cells …. Nature of the assay: cell-based or functional assay.
The target is the same in assay [3]. Nature of the assay: cell-based or functional assay. The source holds these as a separate data set.
The target is the same in assay [4]. Nature of the assay: cell-based or functional assay. The source holds these as a separate data set.
Assay [5] concerns the target T2, recombinant human Trop-2-his protein (ACCESSION NO.: NP_002344.2, AA 1-274) (human, UniProt P09758 27-274).
T2 construct: range 27-274; also called recombinant human Trop-2 protein; recombinant human Trop-2 extracellular domain; not shown: his tag
T2 sequence (looked up): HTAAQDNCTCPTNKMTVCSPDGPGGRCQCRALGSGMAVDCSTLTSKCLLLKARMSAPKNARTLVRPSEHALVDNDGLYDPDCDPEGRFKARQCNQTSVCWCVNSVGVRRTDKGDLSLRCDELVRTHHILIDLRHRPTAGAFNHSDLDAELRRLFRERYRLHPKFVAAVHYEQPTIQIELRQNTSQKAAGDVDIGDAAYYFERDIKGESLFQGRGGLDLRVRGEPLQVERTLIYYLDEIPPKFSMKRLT
Put plainly: ELISA, coated Trop-2-his 0.2 µg/ml. On the procedure:
Plates were coated with recombinant human Trop-2-his protein (ACCESSION NO.: NP_002344.2, AA 1-274) at a concentration of 0.2 μg/ml overnight at 4° C. and then blocked with 5% BSA for 60 min in a constant temperature incubator at 37° C. Chimeric antibodies ch3-11, ch4-3, ch17-1, ch11-4, and ch23-12 and control antibody Sacituzumab (serial dilutions of 8 concentrations in total obtained through 3-fold serially diluting a solution with an initial concentration of 2 μg/ml) were added into the plates which were then incubated in a constant temperature incubator at 37° C. for 60 min. The plates were washed with PBST 4 times, and 1:5000 dilution of HRP-anti-human Fc (Cat.: 109-035-098, Jackson ImmunoResearch) was added into the plates for reaction for 45 min. TMB (Cat.: ME142, GalaxyBio, Beijing) substrate was added for color development for 15 min, and then 2M HCl was added to stop reaction. Absorbances at 450 nm and at 630 nm (as reference wavelength) were read, and A450 nm-630 nm values of the wells in the plates were recorded.

The target in assay [6] is T2, recombinant human Trop-2-his protein …. Put plainly: BLI, antibody on AHC sensor, Trop-2-his 60 nM. The procedure, abridged: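 Humanized antibodies at 4 μg/ml in PBS captured via Fc on anti-human IgG Fc (AHC) biosensors for 120 s; 60 nM Trop-2-his (AA 1-274) as analyte, 100 s association, 300 s dissociation. Blank-subtracted responses fitted to 1:1 Langmuir model for kinetic constants.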

Assay [7] has the same target. Nature of the assay: BLI, naked antibody on AHC sensor, Trop-2-his 60 nM, 300 s binding. On the procedure: (§1) Affinities of the antibodies were determined by an assay including capturing Fc fragments of the antibodies with anti-human IgG Fc capture (AHC) biosensors using Octet QKe system instrument from Fortebio.
(§2) For the assay, SN38-labeled antibodies prepared as described above: h23-12-SN38, ch4-3-SN38, ch11-4-SN38, and positive control antibody Sacituzumab-SN38, as well as naked antibodies h23-12, ch4-3, ch11-4, and positive control antibody Sacituzumab were diluted to 4 μg/ml with PBS and allowed to flow through the surface of an AHC biosensor (Cat.: 18-0015, PALL) for 120 s. Recombinant human Trop-2-his protein (ACCESSION NO.: NP_002344.2, AA 1-274) was used as a mobile phase, and its concentration was 60 nM. The binding time was 300 s and the dissociation time was 300 s. When the assay was finished, data from which the response value of blank control had been deducted were fitted to a 1:1 Langmuir binding model using software, and then kinetic constants for antigen-antibody binding were calculated.

Assay [8] has the same target. Put plainly: BLI, antibody on AHC sensor, Trop-2-his 60 nM. On the procedure:
(§3) 5-6 days after cell transfection, culture supernatants were purified through ProA affinity chromatography column to obtain different humanized antibodies. Affinities of the obtained antibodies were determined by an assay including capturing Fc fragments of the antibodies with anti-human IgG Fc capture (AHC) biosensors using Octet QKe system instrument from Fortebio. For the assay, each of the humanized antibodies and control antibody Sacituzumab was diluted to 4 μg/ml in PBS, and was allowed to flow through the surface of an AHC biosensor (Cat.: 18-0015, PALL) for 120 s. Recombinant human Trop-2-his protein (ACCESSION NO.: NP_002344.2, AA 1-274) was used as a mobile phase, and its concentration was 60 nM. The binding time was 100 s and the dissociation time was 300 s. When the assay was finished, data from which the response values of blank control had been deducted were fitted to a 1:1 Langmuir binding model using software, and then kinetic constants for antigen-antibody binding were calculated.
Affinities of the antibodies obtained from the combinations of mutants of murine antibody 23-12, chimeric antibody ch23-12 and control antibody Sacituzumab to recombinant human Trop-2-his protein were determined by ForteBijo (Table 5).
This is another data set of the same source.

Assay [9] concerns the target T1, human Trop-2 on the surface of cells …. Nature of the assay: cell-based or functional assay. This is another data set of the same source.
In assay [10] the target is T2, recombinant human Trop-2-his protein …. Nature of the assay: BLI, SN38-labeled antibody on AHC sensor, Trop-2-his 60 nM, 300 s binding. On the procedure:
as §1, §2

For assay [11] the target is unchanged. Nature of the assay: BLI, antibody on AHC sensor, Trop-2-his 60 nM. On the procedure: as §3
Affinities of the antibodies obtained from the combinations of mutants of murine antibody 11-4, chimeric antibody ch11-4 and control antibody Sacituzumab to recombinant human Trop-2-his protein were determined by ForteBio (Table 11).
This is another data set of the same source.

The values that follow come from patent publication US20240092930A1 (MABWELL SHANGHAI BIOSCIENCE, published 2024).

B1: chimeric antibody ch4-3 (antibody, human IgG1, V domains shown)
VH: QVQLQQSGPELVKPGASVKMSCKASGFTFTDYVIGWVKQRTGQGLEWIGEIYLGSGTIYYTEKFKGKATLTADTSSNTAYMQLSSLTSEDSAVYFCARGSIFPFDYWGQGTTLTVSS
VL: QIVLTQSPAIMSASPGEKVTMTCSASSSVSYMYWYQQKPGSSPRLLIYDTSTLASGVPVRFSGSGSGTSYSLTISRMEAEDAATYYCQQWSSYPYTFGGGTKLEIK
For the molecule B1, the results for the half-maximal effective concentration (EC50) in assay [1] and in assay [5] were 3.33 nM and 0.32 nM, respectively. Besides, in [2], the “Internalization percentage (%), 1 h, BxPC-3 cells, FACS” value (“Internalization percentage (%), 1 h” below) was determined as 17.1%. In addition, in assay [2], the “Internalization percentage (%), 3 h, BxPC-3 cells, FACS” value (shortened to “Internalization percentage (%), 3 h”) is 23.1%. Besides, in [2], the “Internalization percentage (%), 5 h, BxPC-3 cells, FACS” value (“Internalization percentage (%), 5 h” for short) was determined as 28.1%. In addition, in [3], the “Internalization percentage, 1 h, NCI-N87 cells, FACS” value came to 50.2%. The “Internalization percentage, 1 h, BXPC-3 cells, FACS” value in assay [4] was 30.7%. The Kd came out at 0.3 nM in assay [6] and 0.323 nM in [7].

B2: chimeric antibody ch23-12 (antibody, human IgG1, V domains shown)
VH: QVQLQQPGAELVKPGASVKLSCKADGYIFTSYWMHWVKQRPGQGLEWIGEITPSDNYTSYNQKFKGKATLTVDKSSSTAYMQLSSLTSEDSAVYYCTRGHGNYVSFDYWGQGTTLTVSS
VL: DIQMTQITSSLSASLGDRVTITCRASQDISNYLNWYQQKPDGTVKLLIYYTSRLHSGVPSRFSGSGSGTDYSLTISNLEQEDIATYFCQQGYTLPPYTFGGGTKLEIK
With B2, a half-maximal response in assay [1] (EC50) required 2.75 nM. In addition, in assay [2], the “Internalization percentage (%), 1 h” value is 16.2%; the “Internalization percentage (%), 3 h” value was 21.1%; the “Internalization percentage (%), 5 h” value was found to be 27.1%. For the same molecule, the EC50 in assay [5] was 0.458 nM. For the same molecule, the Kd in assay [8] came to 0.715 nM.

B3: h23-12-SN38 (antibody, human IgG1, kappa, V domains shown)
VH: QVQLVQSGAEVKKPGASVKVSCKASGYTFTSYWMHWVRQAPGQGLEWMGEITPSDNYGSYNQKFKGRVTITRDTSTSTAYMELSSLRSEDTAVYYCARGHGNYVSFDYWGQGTLVTVSS
VL: DIQMTQSPSSLSASVGDRVTITCRASQDISNYLNWYQQKPGKAPKLLIYYTSRLESGVPSRFSGSGSGTDFTLTISSLQPEDFATYFCQQGYTLPPYTFGQGTKLEIKR
modifications: CL2A-SN-38 conjugated to the DTT-reduced antibody; 7.5 SN38 per antibody; sites not stated
notes: also called h23-12 labeled with SN38
With B3, the “Internalization percentage, 1 h, NCI-N87 cells, FACS” value in assay [3] amounted to 51.1%. The “Internalization percentage, 1 h, BXPC-3 cells, FACS” value in assay [4] stood at 20.1%. Also, the “IC50 (µg/ml), inhibitory activity of anti-Trop-2 ADCs on cell growth, BxPC-3 cells” value in assay [9] was 1.41 µg/mL. For the same molecule, in assay [10], the Kd came to 0.441 nM.

B4: chimeric antibody ch11-4 (antibody, human IgG1, V domains shown)
VH: QVQLQQPGAELVRPGASVNLSCKASGYTFTSYWINWVKQRPGQGLEWIGNIYPSNSYTNYNQKFKDTATLTVDKSSSTAYMQLSSPTSEDSAVYFCSSYRSDGFAYWGQGTLVTVSA
VL: DILLTQSPAILSVSPGEKVSFSCRASQNIGTSIHWYQQRTNGSPRLLIEFASESISGIPSRFSGSGSGTDFTLTINSVESEDIADYYCQQSNSWPFTFGGGTKLEIK
In turn, B4 had a concentration for a half-maximal effect (EC50) in assay [1] of 1.15 nM. In assay [2], the “Internalization percentage (%), 1 h” value is -2%; the “Internalization percentage (%), 3 h” value is -7.4%; the “Internalization percentage (%), 5 h” value is -9.38%. In addition, the “Internalization percentage, 1 h, BXPC-3 cells, FACS” value in assay [4] turned out to be 15.5%. Besides, the EC50 in [5] turned out to be 0.237 nM. The Kd in assay [11] was found to be 0.264 nM. Besides, the Kd in assay [7] amounted to 0.176 nM.

B5: ch11-4-SN38 (antibody, V domains shown)
VH: B4 VH
VL: B4 VL
modifications: CL2A-SN-38 conjugated to the DTT-reduced antibody; 7.5 SN38 per antibody; sites not stated
notes: also called ch11-4 labeled with SN38
Regarding B5, the “Internalization percentage, 1 h, BXPC-3 cells, FACS” value in assay [4] is 51.1%. In assay [9], the “IC50 (µg/ml), inhibitory activity of anti-Trop-2 ADCs on cell growth, BxPC-3 cells” value turned out to be 2.88 µg/mL. Also, the Kd in assay [10] was 0.0734 nM.
